Legend:
[1] = target: SARS-CoV-2 spike protein (Hexapro S) (SARS-CoV-2); test: other fluorescence titration
[2] = target: SARS-CoV-2 spike protein (Hexapro S) (SARS-CoV-2); test: dynamic light scattering
[3] = target: SARS-CoV-2 spike protein (Hexapro S) (SARS-CoV-2)

Row | Substance | half-saturation point [1] [nM] | lowest lectin concentration with a significant increase in hydrodynamic radius [2] [nM] | EC50, plaque reduction assay, SARS-CoV-2 Munich isolate in Vero E6 cells [3] [nM]
1 | SeTau-405 fluorescently labeled BOA (natural protein) | 30 to 60 | – | –
2 | Burkholderia oklahomensis agglutinin (BOA) (natural protein) | – | 60 | 9
3 | Oscillatoria agardhii agglutinin (OAA) (natural protein) | – | 125 | –

Reference: article PMC10515186
